Reference: paper PMC8630535

Key:
Conditions in all cases: […]) or PBS pH 8.0, 1 mM TCEP ([…]
[1] = test system: T1, PaaR2 (Escherichia coli O157:H7 EDL933 (CP-933P cryptic prophage)), ORF:dc76e4f2; experiment: EMSA
T1 sequence: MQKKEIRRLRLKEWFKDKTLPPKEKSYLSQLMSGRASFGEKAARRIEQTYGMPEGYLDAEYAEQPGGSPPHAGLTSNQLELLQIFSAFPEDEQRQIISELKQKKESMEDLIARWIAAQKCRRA

[2] = test system: T2, YdaS (Escherichia coli O157:H7 EDL933 (CP-933P cryptic prophage)), ORF:56fdd3d8; experiment: EMSA
T2 sequence: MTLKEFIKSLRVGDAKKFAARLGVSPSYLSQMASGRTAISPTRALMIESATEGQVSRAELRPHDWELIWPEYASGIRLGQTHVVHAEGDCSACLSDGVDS

[3] = test system: T1, PaaR2 (Escherichia coli O157:H7 EDL933 (CP-933P cryptic prophage)), ORF:dc76e4f2; experiment: DNase I footprinting
[4] = test system: T2, YdaS (Escherichia coli O157:H7 EDL933 (CP-933P cryptic prophage)), ORF:56fdd3d8; experiment: DNase I footprinting
[5] = test system: PaaR2 (Escherichia coli O157:H7 EDL933 (CP-933P cryptic prophage)); experiment: EMSA
[6] = test system: YdaS (Escherichia coli O157:H7 EDL933 (CP-933P cryptic prophage)); experiment: EMSA

| Substance | binding [1] | binding [2] | further results |
| --- | --- | --- | --- |
| ACCTTCCTCGGTTTAGTGTTTTTTTGCGAGTTTAGTGTTTAATAAACCATTAAGTCAAGTATTTGCTTGTTTAGTGATTACTAAAGATAATTACCAC (double strand) | > 1 µM | > 1 µM | – |
| GCTTTTGCGCAGAAATTTCGCGATATGGCAGGACAAGACGTAAAATTGACAGCAATTTTATTCATATAAAGAATGAATCGCAGTCAAGGTATTCATC (double strand) [random intergenic region (Neg)] | no binding | no binding | – |
| TCTTTAAACCACTCCTTGAGACGTAAACGGCGAATTTCTTTTTTTTGCATGTGGTAATTATCTTTAGTAATCACTAAACAAGCAAATACTTGACTTAATGGTTTATTAAACACTAAACTCGCAAAAAAACACTAAACCGAGGAAGGTATGACATTAAAAGAGTTTATTAAATCATTAAGGGTTGGTGAT (double strand) [footprint fragment, paaR2-ydaS promoter/operator region] | – | – | binding [3]: binds; binding [4]: binds |
| full-length promoter/operator region, paaR2-ydaS intergenic region (EMSA) | – | – | binding [5]: > 1 µM; binding [6]: > 1 µM |
